From publication PMC6757032 (Nature Communications, 2019)

Columns and labels:
[1] = molecular target: T1, full-length rat syntaxin-1A (reconstituted in liposomes, S-liposomes) (rat, UniProt P32851 1-288); assay: SEC; S-liposomes (2.29 mM lipid) with full-length syntaxin-1A incubated 1 h with 1.2 µM αSNAP or 1.2 µM Munc18-1, then mixed with 1.2 µM of the other (at once or 12 h at 4 °C); 25 mM HEPES pH 7.4, 150 mM KCl, 1 mM TCEP; liposomes and bound proteins elute near the void volume; conditions: both partners purified
T1 construct: syntaxin-1A, rat, full length; For the NMR experiments the protein was 2H-I-13CH3-labelled (isoleucine delta1 methyl groups); also called Syx WT; liposome-anchored syntaxin-1; source: E. coli BL21(DE3), purified (Ni-NTA, thrombin, Superdex 200 in DPC), reconstituted in liposomes

[2] = molecular target: T1, full-length rat syntaxin-1A …; assay: liposome co-floatation; S-liposomes (0.75 mM lipid) with full-length syntaxin-1A pre-incubated 1 h at room temperature with 3 µM αSNAP (C-terminal His6-linker) or 3 µM Munc18-1, then 0-15 µM of the other protein (with or without 2.4 µM NSF) or 3 µM Munc18-1 at 4 °C for various times; Histodenz gradient, top layer by SDS-PAGE and Coomassie blue; conditions: both partners purified

T1 sequence (P32851 whole entry): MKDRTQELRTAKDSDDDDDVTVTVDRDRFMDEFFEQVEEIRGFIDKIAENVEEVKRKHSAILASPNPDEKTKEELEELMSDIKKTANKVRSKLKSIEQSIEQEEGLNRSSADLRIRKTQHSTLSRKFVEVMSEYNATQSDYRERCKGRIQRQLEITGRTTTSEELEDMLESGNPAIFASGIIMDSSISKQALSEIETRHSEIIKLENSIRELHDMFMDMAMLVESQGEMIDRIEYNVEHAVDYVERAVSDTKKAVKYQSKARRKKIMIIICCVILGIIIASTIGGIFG

Row | binding result [1] | binding result [2] | Binder
1 | binds | – | full-length Bos Taurus αSNAP (natural protein, UniProt P81125 1-295, looked up, alpha-SNAP, Bos taurus, full length; also called WT αSNAP; source: E. coli BL21(DE3), purified (Glutathione Sepharose, thrombin, Superdex 75)) MDNSGKEAEAMALLAEAERKVKNSQSFFSGLFGGSSKIEEACEIYARAANMFKMAKNWSAAGSAFCQAAHVHLQLQSKHDAATCFVDAGNAFKKADPQEAINCLMRAIEIYTDMGRFTIAAKHHISIAEIYETELVDIEKAIAHYEQSADYYKGEESNSSANKCLLKVAGYAAQLEQYQKAIDIYEQVGTNAMDSPLLKYSAKDYFFKAALCHFCIDMLNAKLAVQKYEELFPAFSDSRECKRIKKLLEAHEEQNVDSYTEAVKEYDSISRLDQWLTTMLLRIKKTIQGDEEDLR
2 | – | binds | αSNAP with a C-terminal His6-linker (…) (natural protein, Bos Taurus, UniProt P81125 1-295, looked up, Used in all liposome co-floatation assays so that the syntaxin-1 and αSNAP bands separate on the gels; also called αSNAP containing a linker at the C terminus; source: E. coli BL21(DE3), purified as the unmodified construct) MDNSGKEAEAMALLAEAERKVKNSQSFFSGLFGGSSKIEEACEIYARAANMFKMAKNWSAAGSAFCQAAHVHLQLQSKHDAATCFVDAGNAFKKADPQEAINCLMRAIEIYTDMGRFTIAAKHHISIAEIYETELVDIEKAIAHYEQSADYYKGEESNSSANKCLLKVAGYAAQLEQYQKAIDIYEQVGTNAMDSPLLKYSAKDYFFKAALCHFCIDMLNAKLAVQKYEELFPAFSDSRECKRIKKLLEAHEEQNVDSYTEAVKEYDSISRLDQWLTTMLLRIKKTIQGDEEDLR
